Test [1] has as its target T1, cynomolgus monkey IgE (cynomolgus monkey).
T1 construct: serum was used as the source of IgE; also called cynomolgus IgE; cyno IgE
Kind of test: capture ELISA, antibody coated; Test 1, Cyno 1 serum. The procedure:
(§1) Wells were washed once with 150 μL/well wash buffer (0.05% Tween-20, Sigma, Cat. No. P7949/TBS) then blocked with 150 μL/well 1% BSA (Sigma, Cat. No. A7030) in TBS for 2 hours at room temperature. Wells were washed twice with 150 μL wash buffer. 50 μL human (in-house donors) or cynomolgus serum (Harlan Sera-Lab Ltd, Loughborough) was added from neat to at least 1:16 dilution in 1% BSA/0.05% Tween-20/TBS diluent buffer. […] Wells were incubated for 2 hours at 25° C. before washing (3×150 μLwash buffer). […] Wells were incubated for 1 hour at 25° C. then washed (3×150 μL wash buffer). Streptavidin-HRP (Amersham Bioscience, Cat. No. RPN 1231) diluted 1:1000 in diluent buffer was added to all wells and incubated for 45 minutes at room temperature. Wells were washed (3×150 μL wash buffer). […] OPD (Dako, Cat. No. S2045) was added to all wells and the color allowed to develop for 10 minutes before stopping the reaction with 50 μl 0.6M H₂SO₄ and the absorbance measured at 490 nm.
In general terms: An ELISA detects its analyte on a solid surface through an enzyme-linked reagent.

For test [2], the target named is T1, cynomolgus monkey IgE. Kind of test: capture ELISA, antibody coated; Test 1, Cyno 5 serum. Here is the method: as §1
The target of test [3] is T1, cynomolgus monkey IgE. Kind of test: capture ELISA, antibody coated; Test 1, Cyno 2 serum. Here is the method:
as §1

Test [4] has as its target T1, cynomolgus monkey IgE. Nature of the test: capture ELISA, antibody coated; Test 1, Cyno 7 serum. Here is the method:
as §1

For test [5], the target named is T1, cynomolgus monkey IgE. Kind of test: capture ELISA, antibody coated; Test 1, Cyno 4 serum. Here is the method:
as §1

For test [6], the target named is T2, human IgA (human).
T2 construct: bought preparation coated on the ELISA plate
Kind of test: ELISA, immunoglobulin coated at 4 µg/mL, anti-human IgG2 detection. The procedure:
(§2) Wells were washed 3× with 150 μL wash buffer (0.05% Tween-20 (Sigma, Cat. No. P7949)/PBS) then blocked with 150 μL/well blocking buffer (2.5% BSA (Sigma, Cat. No. A7030)/PBS) for 2 hours at room temperature. Wells were washed 3× with 150 μL wash buffer/well. […] Antibodies were diluted in diluent buffer (PBS/1% BSA/0.05% Tween-20) and this was added to blank control wells (duplicate wells for each secondary antibody used). Antibodies were incubated for 2 hours at room temperature. Wells were washed 3× with 150 μL wash buffer/well. Binding of control antibodies to immunoglobulin was detected with anti-mouse IgG-HRP conjugate (Sigma, Cat. No. A4416) diluted 1:8000 in diluent buffer. 50 μL/well was added to control antibody and blank wells. Wells were incubated for 1 hour at room temperature, then washed 3× with 150 μL wash buffer/well. 50 μl OPD (Dako, Cat. No. […] Wells were incubated for 1 hour at room temperature then washed 3× with 150 μL wash buffer/well. Streptavidin-HRP (Amersham Bioscience, Cat. No. RPN 1231) diluted 1:2000 in diluent buffer was added to all wells and incubated for 45 minutes at room temperature. Wells were washed (3×150 μL wash buffer).

In test [7] the target is T3, human IgG1 (human, UniProt P01857-1 1-330 = IgG part).
T3 construct: bought preparation coated on the ELISA plate; not shown: bought immunoglobulin, light chain not described
T3 sequence (P01857 other isoform, or with tags, fused parts or gaps): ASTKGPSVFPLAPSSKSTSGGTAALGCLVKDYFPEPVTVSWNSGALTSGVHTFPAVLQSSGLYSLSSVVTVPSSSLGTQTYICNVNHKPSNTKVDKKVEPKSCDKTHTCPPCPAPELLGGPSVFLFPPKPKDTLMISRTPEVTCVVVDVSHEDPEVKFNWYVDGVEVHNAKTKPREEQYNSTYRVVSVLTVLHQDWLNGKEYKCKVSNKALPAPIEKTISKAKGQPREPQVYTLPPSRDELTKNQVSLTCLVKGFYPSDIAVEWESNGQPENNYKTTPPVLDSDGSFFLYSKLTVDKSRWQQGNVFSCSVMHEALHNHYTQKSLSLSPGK
The test is described as above. Here is the method:
as §2

The target of test [8] is T4, human IgG3 (human, UniProt P01860-1 1-377).
T4 construct: bought preparation coated on the ELISA plate; not shown: bought immunoglobulin, light chain not described
T4 sequence (P01860 other isoform, or with tags, fused parts or gaps): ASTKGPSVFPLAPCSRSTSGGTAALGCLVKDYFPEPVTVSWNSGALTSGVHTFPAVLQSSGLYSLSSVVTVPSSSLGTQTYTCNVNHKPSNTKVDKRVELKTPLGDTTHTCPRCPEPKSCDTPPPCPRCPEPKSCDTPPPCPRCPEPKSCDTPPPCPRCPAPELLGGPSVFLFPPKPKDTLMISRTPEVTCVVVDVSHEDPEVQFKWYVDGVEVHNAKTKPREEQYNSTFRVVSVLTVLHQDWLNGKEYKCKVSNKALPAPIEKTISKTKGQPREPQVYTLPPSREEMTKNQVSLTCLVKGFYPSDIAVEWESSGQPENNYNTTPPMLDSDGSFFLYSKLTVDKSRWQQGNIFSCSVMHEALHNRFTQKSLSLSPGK
Described as above. Here is the method:
as §2

Test [9] concerns the target T1, cynomolgus monkey IgE. Nature of the test: capture ELISA, antibody coated; Test 1, Cyno 6 serum. Here is the method:
as §1

For test [10], the target named is T1, cynomolgus monkey IgE. Kind of test: capture ELISA, antibody coated; Test 2, Cyno 3 serum. Here is the method: as §1
In test [11] the target is T1, cynomolgus monkey IgE. Nature of the test: capture ELISA, antibody coated; Test 2, Cyno 6 serum. Here is the method:
as §1

Test [12] addresses T1, cynomolgus monkey IgE. Kind of test: capture ELISA, antibody coated; Test 2, Cyno 7 serum. The procedure: as §1
The target of test [13] is T1, cynomolgus monkey IgE. Nature of the test: capture ELISA, antibody coated; Test 2, Cyno 5 serum. Here is the method:
as §1

Test [14] has as its target T1, cynomolgus monkey IgE. Nature of the test: capture ELISA, antibody coated; Test 2, Cyno 4 serum. Here is the method: as §1
Test [15] concerns the target T1, cynomolgus monkey IgE. Nature of the test: capture ELISA, antibody coated; Test 2, Cyno 8 serum. The procedure:
as §1

Test [16] concerns the target T1, cynomolgus monkey IgE. Nature of the test: capture ELISA, antibody coated; Test 2, Cyno 1 serum. The procedure:
as §1

Test [17] deals with T1, cynomolgus monkey IgE. Nature of the test: capture ELISA, antibody coated; Test 1, Cyno 3 serum. Here is the method:
as §1

The target in test [18] is T1, cynomolgus monkey IgE. Nature of the test: capture ELISA, antibody coated; Test 2, Cyno 2 serum. The procedure: as §1
The target of test [19] is T5, human IgE (full length human immunoglobulin E) (human, UniProt P01854 1-546). Nature of the test: serum free IgE depletion ELISA; DIN 0623 experiment 2, initial free IgE 133 ng/mL.
T5 sequence (P01854 whole entry): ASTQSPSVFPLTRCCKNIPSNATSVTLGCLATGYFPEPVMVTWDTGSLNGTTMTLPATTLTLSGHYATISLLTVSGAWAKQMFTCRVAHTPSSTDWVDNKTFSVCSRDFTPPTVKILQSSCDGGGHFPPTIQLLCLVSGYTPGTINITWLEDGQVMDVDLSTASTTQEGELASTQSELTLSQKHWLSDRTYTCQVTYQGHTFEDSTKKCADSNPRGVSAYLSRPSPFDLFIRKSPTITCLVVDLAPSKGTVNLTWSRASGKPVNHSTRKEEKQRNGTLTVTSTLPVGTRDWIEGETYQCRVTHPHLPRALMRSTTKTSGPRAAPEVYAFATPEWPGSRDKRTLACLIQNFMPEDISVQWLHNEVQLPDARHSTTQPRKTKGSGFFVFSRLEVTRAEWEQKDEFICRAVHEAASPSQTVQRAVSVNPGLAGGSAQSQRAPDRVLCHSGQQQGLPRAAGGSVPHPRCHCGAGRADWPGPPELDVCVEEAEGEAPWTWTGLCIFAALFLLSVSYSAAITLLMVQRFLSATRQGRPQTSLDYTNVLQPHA
Test [20] addresses T5, human IgE (full length human …). Nature of the test: serum free IgE depletion ELISA; DIN 0451 experiment 2, initial free IgE 534 ng/mL.
Test [21] has the same target. Nature of the test: serum free IgE depletion ELISA; DIN 0649, initial free IgE 93 ng/mL.
The target is the same in test [22]. Nature of the test: serum free IgE depletion ELISA; DIN 0591, initial free IgE 152 ng/mL.
For test [23] the target is unchanged. Kind of test: serum free IgE depletion ELISA; DIN 0321 experiment 2, initial free IgE 265 ng/mL.
For test [24] the target is unchanged. Kind of test: serum free IgE depletion ELISA; DIN 0155, initial free IgE 93 ng/mL.
The target is the same in test [25]. Nature of the test: serum free IgE depletion ELISA; DIN 0632 experiment 2, initial free IgE 289 ng/mL.
The target is the same in test [26]. Nature of the test: serum free IgE depletion ELISA; DIN 0347, initial free IgE 221 ng/mL.
Test [27] shares this target. Kind of test: serum free IgE depletion ELISA; DIN 0461, initial free IgE 80 ng/mL.
The target is the same in test [28]. Kind of test: ELISA, immunoglobulin coated at 4 µg/mL, anti-human IgG2 detection. Here is the method: as §2
Test [29] shares this target. Kind of test: serum free IgE depletion ELISA; DIN 0011 experiment 2, initial free IgE 326 ng/mL.

Substitutions are numbered along the chain they refer to. In names and notes the source's numbering stands.

B1: recombinant 5.396.1 (antibody, human IgG2, kappa, V domains shown)
VH: QVQLQQWGAGLLKPSETLSLTCAVYGGSFSGYYWSWIRQPPGKGLEWIGEIHHSGSTNYNPSLKSRVTISVDTSKNQFSLKLSSVTAADTAVYYCARDNWNDSFYYYYGMDVWGQGTTVTVSS
VL: DIQMTQSPSSLSASVGDRVTITCRASQGISNHLAWFQQKPGKAPKSLIYAASSLQSGVPSKFSGSGSGTDFTLTISSLQPEDFATYYCQQYNRHPFTFGPGTKVDIKR
notes: human IgG2 kappa, expressed in 293 Freestyle cells; also called 5.396.1 (recombinant)
Take B1: the IgE concentration detected in [1] turned out to be 30 ng/mL; in [2], 37 ng/mL; in test [3] it was 0 ng/mL; in test [4], 0 ng/mL; in test [5] it was 0 ng/mL; in [9] it was 3 ng/mL. Further, the results for the A290 nm in [6], in [7] and in [8] were 0.04 absorbance, 0.07 absorbance and 0.05 absorbance, respectively.

B2: 5.396.1 Hc-S103N Lc-K61R (antibody, human IgG2, kappa, V domains shown)
VH: B1 VH with S103N
VL: B1 VL with K61R
notes: human IgG2 kappa; the entries already hold the substitutions S103N (Hc) and K61R (Lc); also called 5.396.1 (S103N/K61R); 5.396.1 N/R
For B2, the IgE concentration detected was 53 ng/mL in test [10]; 0 ng/mL in [11]; 0 ng/mL in test [12]; 41 ng/mL in test [1]; 102 ng/mL in test [13]; 0 ng/mL in [14]. Moreover, the IgE concentration detected in test [15] worked out at 0 ng/mL; in test [2], 57 ng/mL; in [3] it was 0 ng/mL; in test [16] it was 57 ng/mL; in test [4], 0 ng/mL; in [17], 39 ng/mL. Moreover, the IgE concentration detected in test [5] came to 0 ng/mL; in test [9], 0 ng/mL; in [18] it was 39 ng/mL. In addition, the A290 nm turned out to be 0.04 absorbance in test [6], 0.08 absorbance in test [7] and 0.05 absorbance in test [8].

B3: recombinant 6.605.1 (antibody, human IgG2, kappa, V domains shown)
VH: QVHLVQSGAEVKMPGASVKVSCKASGYTFTSYGISWVRQAPGQGLEWMGWISAYNGNTNYAQKLQGRITMTTDTSTSTAYMDLRSLRSDDTAVYYCARDGDYYDPFDYWGQGTLVTVSS
VL: DIQMTQSPSSLSASVGDRVTITCRTSQSISNWLNWYQQKPGKAPKLLIYGASTLKSGVPSRFSGSESGTDFTLTISSLQPEDFATYYCQQSYSTPPTFGQGTKVEIKR
notes: human IgG2 kappa; also called 6.605.1 (recombinant)
Turning to B3, the IgE concentration detected is 120 ng/mL in test [1]; 140 ng/mL in [2]; 91 ng/mL in test [3]; 0 ng/mL in test [4]; 107 ng/mL in test [17]; 0 ng/mL in [5]. For the same molecule, in test [9], the IgE concentration detected came to 0 ng/mL. Further, the A290 nm in test [6] is 0.04 absorbance; in [7] it was 0.07 absorbance; in test [8] it was 0.05 absorbance.

B4: 6.605.1 Hc-H3Q,M13K,D82E Lc-T25A,T53S (antibody, human IgG2, kappa, V domains shown)
VH: B3 VH with H3Q, M13K, D82E
VL: B3 VL with T25A, T53S
notes: human IgG2 kappa; the entries already hold the substitutions; also called 6.605.1 (H3Q,M13K,D82E-T25A,T53S); 6.605.1 QKE/AS
B4: the IgE concentration detected in test [1] was 133 ng/mL; in [2] it was 173 ng/mL; in [3], 103 ng/mL; in [4], 0 ng/mL; in test [17], 122 ng/mL; in test [5], 0 ng/mL. In addition, the A290 nm in test [6] stood at 0.04 absorbance; in test [7], 0.07 absorbance; in [8], 0.04 absorbance.

B5: 5.948.1 Hc-H100Y (antibody, human IgG2, kappa, V domains shown)
VH: QVQLVQSGAEVKKPGASVKVSCKASGYTFTSYDINWVRQATGQGLEWMGWMDPNSGNTGYAQKFQGRVTMTRNTSISTAYMELSSLRSEDTAVYYCARGYYDSDGYYSFSGMDVWGQGTTVTVSS
VL: not shown
notes: human IgG2 kappa; the heavy chain entry already holds H100Y; also called 5.948.1 H100Y; 5.948.1 (H100Y)
Consider B5, for which the IC25ng/mL in test [19] came out at 0.76 µg/mL; in [20], 10.5 µg/mL; in test [21] it was 0.39 µg/mL; in test [22], 0.55 µg/mL; in [23], 2.55 µg/mL; in [24] it was 0.34 µg/mL. In addition, the IC25ng/mL in test [25] was 2.29 µg/mL; in [26] it was 1.33 µg/mL; in [27], 0.34 µg/mL; in test [29], 2.96 µg/mL. In addition, the IgE concentration detected in [10] came out at 178 ng/mL; in test [11], 39 ng/mL; in test [12], 0 ng/mL; in test [13] it was 420 ng/mL; in test [14], 25 ng/mL; in [15] it was 36 ng/mL. Besides, the IgE concentration detected in test [16] came to 170 ng/mL; in test [18], 199 ng/mL. Also, the A290 nm in [6] is 0.05 absorbance; in test [28], 1.05 absorbance; in test [7], 0.06 absorbance; in test [8], 0.06 absorbance.

The record behind these values is patent publication US20110064726A1 (published 2011).
